We go through one substance from patent US7147850.

For test [1], the target named is MUC-1 glycoprotein on untreated ZR-75-1 cells (glycosylated MUC-1) (human) (UniProt P15941). Briefly: FACScan on untreated ZR-75-1 cells (PBS control 6.23).
For test [2], the target named is MUC-1 on ZR-75-1 cells deglycosylated with 4 mM Phenyl-N-alpha-D-Glucosamide (unglycosylated MUC-1) (human) (UniProt P15941). Briefly: FACScan on deglycosylated ZR-75-1 cells (PBS control 6.76).
Sequence of MUC-1 on ZR-75-1 cells deglycosylated with 4 mM Phenyl-N-alpha-D-Glucosamide (unglycosylated MUC-1) (human) (P15941 24-1255, form in doubt): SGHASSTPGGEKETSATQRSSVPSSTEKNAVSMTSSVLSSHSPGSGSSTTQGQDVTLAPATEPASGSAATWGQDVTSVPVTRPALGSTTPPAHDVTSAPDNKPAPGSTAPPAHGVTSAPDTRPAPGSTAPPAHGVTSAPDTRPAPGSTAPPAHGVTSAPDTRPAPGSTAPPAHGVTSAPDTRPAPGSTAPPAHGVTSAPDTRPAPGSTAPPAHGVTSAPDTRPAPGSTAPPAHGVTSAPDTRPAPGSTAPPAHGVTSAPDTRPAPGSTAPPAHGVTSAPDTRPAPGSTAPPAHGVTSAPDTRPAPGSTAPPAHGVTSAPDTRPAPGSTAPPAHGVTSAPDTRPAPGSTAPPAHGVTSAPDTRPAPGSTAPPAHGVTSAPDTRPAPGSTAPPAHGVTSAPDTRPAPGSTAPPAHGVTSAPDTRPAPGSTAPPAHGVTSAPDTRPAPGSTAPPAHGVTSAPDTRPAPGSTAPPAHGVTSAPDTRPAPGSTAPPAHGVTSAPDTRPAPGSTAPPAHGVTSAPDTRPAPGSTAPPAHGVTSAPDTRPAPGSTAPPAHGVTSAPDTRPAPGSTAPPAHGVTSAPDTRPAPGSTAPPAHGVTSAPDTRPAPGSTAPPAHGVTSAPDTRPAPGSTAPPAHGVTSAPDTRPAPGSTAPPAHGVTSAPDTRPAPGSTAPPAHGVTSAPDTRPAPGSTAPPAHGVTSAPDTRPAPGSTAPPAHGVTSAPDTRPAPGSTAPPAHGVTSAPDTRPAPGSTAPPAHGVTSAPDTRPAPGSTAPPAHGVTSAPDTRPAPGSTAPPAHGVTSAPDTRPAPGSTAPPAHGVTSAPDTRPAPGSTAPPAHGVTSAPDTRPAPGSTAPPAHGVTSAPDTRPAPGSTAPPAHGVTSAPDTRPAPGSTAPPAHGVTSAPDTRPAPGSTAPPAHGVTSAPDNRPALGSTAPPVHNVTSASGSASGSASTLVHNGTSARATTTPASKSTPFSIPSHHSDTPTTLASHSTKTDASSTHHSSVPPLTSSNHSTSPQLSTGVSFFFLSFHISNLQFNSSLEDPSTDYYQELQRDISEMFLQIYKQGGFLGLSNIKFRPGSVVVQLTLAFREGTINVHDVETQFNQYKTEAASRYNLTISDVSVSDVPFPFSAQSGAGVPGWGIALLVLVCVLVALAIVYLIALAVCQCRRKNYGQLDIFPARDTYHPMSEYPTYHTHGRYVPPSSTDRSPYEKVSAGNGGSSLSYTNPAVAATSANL

Sequence of MUC-1 glycoprotein on untreated ZR-75-1 cells (glycosylated MUC-1) (human) (P15941 24-1255): as the sequence (P15941 24-1255, form in doubt) above

Consider SM3 (antibody), for which the % positive cells came out at 7.49% in test [1] and 41.3% in test [2].
